Assay results: article doi:10.1101/749432 (2019)

B1: endothelial protein C receptor (EPCR), residues 16 to 210, biotinylated on the BAP tag (receptor)
chain: FCSQDASDGLQRLHMLQISYFRDPYHVWYQGNASLGGHLTHVLEGPDTNTTIIQLQPLQEPESWARTQSGLQSYLLQFHGLVRLVHQERTLAFPLTIRCFLGCELPPEGSRAHVFFEVAVNGSSFVSFRPERALWQADTQVTSGVVTFTLQQLNAYNRTRYELREFLEDTCVQYVQKHISAENTKGSQTSRSYTS
B2: synthetic binder (cys2 variant of design 469) (designed binder)
chain: NNWEQQKKNIEDDLDRYKKRAEELRKEAEKARKEARKTEDPTEEAKKEWEKRCKELEERARKLEDEAKDRVNDLFDSNFFQVIYSGDNDEEEWKKEKDRAEKEIEEWFKRIKEKCEEIKKRLEQ
modifications: biotin on the BAP tag (BirA)

How the values were obtained:
[1] = target: HB3var03 CIDRα1.4 domain (E. coli, refolded) (Plasmodium falciparum); experiment: SPR; wild type, data from ref. 8
[2] = target: B1; experiment: SPR

Binder | Kd [1] [nM] | koff [1] [s⁻¹] | koff [2] [s⁻¹]
B1 | 0.4 | 0.000197 | –
B2 | – | – | 0.000131
